The results in this text go back to US20250382726A1.

In assay [1] the target is recombinant HER2 (Acro Biosystems; P/N. H5225) (UniProt P04626). Description: BLI (Octet), IgG captured on anti-human Fc biosensors, HER2 5-0.078 nM in solution, 37 C, 1:1 global fit, mean of duplicates. A general note: Biolayer interferometry detects binding as a change in optical thickness at a sensor tip.
Assay [2] addresses recombinant Cathepsin S protein (UniProt P25774). Nature of the assay: BLI (Octet), captured IgG, Cathepsin S 200 ng/ml, 25 C; Run 1; Affinity to be determined.
Assay [3] has the same target. Description: BLI (Octet), captured IgG, Cathepsin S 200 ng/ml, 25 C; Run 2, second Fsn0503h control row.
The target is the same in assay [4]. Description: BLI (Octet), IgG captured on anti-human biosensors, 200 ng/ml recombinant Cathepsin S, 25 C.
For assay [5] the target is unchanged. Nature of the assay: BLI (Octet), captured IgG, Cathepsin S 200 ng/ml, 25 C; Run 1, first Fsn0503h control row.
The target is the same in assay [6]. Nature of the assay: BLI (Octet), captured IgG, Cathepsin S 200 ng/ml, 25 C; Run 2, Fsn0503h control.
Assay [7] has the same target. Description: BLI (Octet), captured IgG, Cathepsin S 200 ng/ml, 25 C; Run 1, Fsn0503h control.

Broadly, the Kd is the equilibrium constant for the complex coming apart. Broadly, the koff is the rate constant with which the complex falls apart. By kon is commonly meant the second-order rate constant of association.

Turning to “Wild-Type (antibody having sequence of trastuzumab, transiently expressed in parallel with the variants)”, the dissociation constant (Kd) in assay [1] stood at 0.126 nM.
For WT (antibody), in assay [2], the Kd was under 0.001 nM, the off-rate (koff) is under 1e-07 s⁻¹ and the kon worked out at 45100 M⁻¹ s⁻¹.

B1: Fsn0503h, humanised anti-Cathepsin S antibody (Fusion Antibodies) (antibody, V domains shown)
VH: EVQLVESGGGLVKPGGSLRLSCAASGFAFSSYDMSWVRQAPGKGLEWVAYITTGGVNTYYPDTVKGRFTISRDNAKNTLYLQMSSLKSEDTAVYYCARHSYFDYWGQGTTVTVSS
VL: DVVMTQSPLSLPVTLGQPASISCRSSQSLVHSNGNTYLHWYLQKPGQSPQLLIYKVSNRFSGVPDRFSGSGSGTDFTLKISRVEAEDVGVYYCSQTTHVPPTFGQGTKLEIK
Regarding B1, the Kd in assay [3] was 5.11 nM; in assay [4] it was 4.45 nM; in assay [5], 3.05 nM; in assay [6] it was 4.39 nM; in assay [7], 5.47 nM. Besides, the koff in assay [3] was found to be 0.000242 s⁻¹; in assay [5], 0.000121 s⁻¹; in assay [6], 0.000188 s⁻¹; in assay [7], 0.000144 s⁻¹. Further, the kon was determined as 39600 M⁻¹ s⁻¹ in assay [5], 42800 M⁻¹ s⁻¹ in assay [6] and 26200 M⁻¹ s⁻¹ in assay [7].
